How the values were obtained:
[1] = tested on: HeLa Kyoto; assay: solubility in G1/S (NP-40 vs SDS abundance) (log2 ratio); higher = more soluble; settings: cell cycle stage: G1/S
[2] = tested on: HeLa Kyoto; assay: melting temperature (median over replicates), in situ; higher = more thermally stable
[3] = tested on: HeLa Kyoto; assay: solubility change mitosis vs G1/S (difference of NP-40 vs SDS log2 ratios) (log2 ratio difference); higher = more soluble in mitosis
[4] = tested on: HeLa Kyoto; assay: thermal stability score vs G1/S (z-score of summed log2 fold changes over temperatures); higher = more thermally stable than in G1/S
[5] = cell cycle stage: early G1 (4.5 h after nocodazole release)
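For melting temperature (median over replicates), in situ in this document: HeLa Kyoto cells synchronized by double thymidine or nocodazole block, proteins quantified by TMT10plex mass spectrometry, three independent biological replicates.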
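For solubility change mitosis vs G1/S (difference of NP-40 vs SDS log2 ratios) in this document: synchronized HeLa Kyoto cells (double thymidine block for G1/S, nocodazole release for mitosis), protein amounts in NP-40 versus SDS lysates quantified by mass spectrometry, three biological replicates.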
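For solubility in G1/S (NP-40 vs SDS abundance) in this document: HeLa Kyoto cells arrested at G1/S by double thymidine block, proteins quantified by TMT10plex mass spectrometry in mild NP-40 versus SDS extracts, three biological replicates.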
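For thermal stability score vs G1/S (z-score of summed log2 fold changes over temperatures) in this document: synchronized HeLa Kyoto cells, proteins quantified by TMT10plex mass spectrometry, three biological replicates, mitosis taken 0.5 h after nocodazole release, G1/S directly after double thymidine block.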

| Sequence | solubility in G1/S (log2) [1] | melting temperature ([2]; cell cycle stage: G1/S) [°C] | melting temperature ([2]; cell cycle stage: mitosis) [°C] | solubility change mitosis (log2) [3] | thermal stability score [4, 5] | thermal stability score ([4]; cell cycle stage: mitosis) |
| --- | --- | --- | --- | --- | --- | --- |
| MTPEFDEEVVFENSPLYQYLQDLGHTDFEICSSLSPKTEKCTTEGQQKPPTRVLPKQGILLKVAETIKSWIFFSQCNKKDDLLHKLDIGFRLDSLHTILQQEVLLQEDVELIELLDPSILSAGQSQQQENGHLPTLCSLATPNIWDLSMLFAFISLLVMLPTWWIVSSWLVWGVILFVYLVIRALRLWRTAKLQVTLKKYSVHLEDMATNSRAFTNLVRKALRLIQETEVISRGFTLVSAACPFNKAGQHPSQHLIGLRKAVYRTLRANFQAARLATLYMLKNYPLNSESDNVTNYICVVPFKELGLGLSEEQISEEEAHNFTDGFSLPALKVLFQLWVAQSSEFFRRLALLLSTANSPPGPLLTPALLPHRILSDVTQGLPHAHSACLEELKRSYEFYRYFETQHQSVPQCLSKTQQKSRELNNVHTAVRSLQLHLKALLNEVIILEDELEKLVCTKETQELVSEAYPILEQKLKLIQPHVQASNNCWEEAISQVDKLLRRNTDKKGKPEIACENPHCTVVPLKQPTLHIADKDPIPEEQELEAYVDDIDIDSDFRKDDFYYLSQEDKERQKREHEESKRVLQELKSVLGFKASEAERQKWKQLLFSDHAVLKSLSPVDPVEPISNSEPSMNSDMGKVSKNDTEEESNKSATTDNEISRTEYLCENSLEGKNKDNSSNEVFPQGAEERMCYQCESEDEPQADGSGLTTAPPTPRDSLQPSIKQRLARLQLSPDFTFTAGLAAEVAARSLSFTTMQEQTFGGEEEEQIIEENKNEIEEK [VEZT] | 0.0301 | 52.6 | 52 | -0.229 | -1.08 | -3.04 |
| MEELIVELRLFLELLDHEYLTSTVREKKAVITNILLRIQSSKGFDVKDHAQKQETANSLPAPPQMPLPEIPQPWLPPDSGPPPLPTSSLPEGYYEEAVPLSPGKAPEYITSNYDSDAMSSSYESYDEEEEDGKGKKTRHQWPSEEASMDLVKDAKICAFLLRKKRFGQWTKLLCVIKDTKLLCYKSSKDQQPQMELPLQGCNITYIPKDSKKKKHELKITQQGTDPLVLAVQSKEQAEQWLKVIKEAYSGCSGPVDSECPPPPSSPVHKAELEKKLSSERPSSDGEGVVENGITTCNGKEQVKRKKSSKSEAKGTVSKVTGKKITKIISLGKKKPSTDEQTSSAEEDVPTCGYLNVLSNSRWRERWCRVKDNKLIFHKDRTDLKTHIVSIPLRGCEVIPGLDSKHPLTFRLLRNGQEVAVLEASSSEDMGRWIGILLAETGSSTDPEALHYDYIDVEMSASVIQTAKQTFCFMNRRVISANPYLGGTSNGYAHPSGTALHYDDVPCINGSLKGKKPPVASNGVTGKGKTLSSQPKKADPAAVVKRTGSNAAQYKYGKNRVEADAKRLQTKEEELLKRKEALRNRLAQLRKERKDLRAAIEVNAGRKPQAILEEKLKQLEEECRQKEAERVSLELELTEVKESLKKALAGGVTLGLAIEPKSGTSSPQSPVFRHRTLENSPISSCDTSDTEGPVPVNSAAVLKKSQAAPGSSPCRGHVLRKAKEWELKNGT [AFAP1] | -0.611 | 50.5 | 49.7 | 0.451 | -1.47 | -2.94 |
| MLRSGPASGPSVPTGRAMPSRRVARPPAAPELGALGSPDLSSLSLAVSRSTDELEIIDEYIKENGFGLDGGQPGPGEGLPRLVSRGAASLSTVTLGPVAPPATPPPWGCPLGRLVSPAPGPGPQPHLVITEQPKQRGMRFRYECEGRSAGSILGESSTEASKTLPAIELRDCGGLREVEVTACLVWKDWPHRVHPHSLVGKDCTDGICRVRLRPHVSPRHSFNNLGIQCVRKKEIEAAIERKIQLGIDPYNAGSLKNHQEVDMNVVRICFQASYRDQQGQMRRMDPVLSEPVYDKKSTNTSELRICRINKESGPCTGGEELYLLCDKVQKEDISVVFSRASWEGRADFSQADVHRQIAIVFKTPPYEDLEIVEPVTVNVFLQRLTDGVCSEPLPFTYLPRDHDSYGVDKKRKRGMPDVLGELNSSDPHGIESKRRKKKPAILDHFLPNHGSGPFLPPSALLPDPDFFSGTVSLPGLEPPGGPDLLDDGFAYDPTAPTLFTMLDLLPPAPPHASAVVCSGGAGAVVGETPGPEPLTLDSYQAPGPGDGGTASLVGSNMFPNHYREAAFGGGLLSPGPEAT [RELB] | -0.0253 |  | 50.1 | -0.12 | 0.0562 | 0.606 |
| MTELQSALLLRRQLAELNKNPVEGFSAGLIDDNDLYRWEVLIIGPPDTLYEGGVFKAHLTFPKDYPLRPPKMKFITEIWHPNVDKNGDVCISILHEPGEDKYGYEKPEERWLPIHTVETIMISVISMLADPNGDSPANVDAAKEWREDRNGEFKRKVARCVRKSQETAFE [UBE2G1] | 0.543 | 51.7 | 53 | 0.0506 | -0.274 | 0.392 |
| MAHRPKRTFRQRAADSSDSDGAEESPAEPGAPRELPVPGSAEEEPPSGGGRAQVAGLPHRVRGPRGRGRVWASSRRATKAAPRADEGSESRTLDVSTDEEDKIHHSSESKDDQGLSSDSSSSLGEKELSSTVKIPDAAFIQAARRKRELARAQDDYISLDVQHTSSISGMKRESEDDPESEPDDHEKRIPFTLRPQTLRQRMAEESISRNEETSEESQEDEKQDTWEQQQMRKAVKIIEERDIDLSCGNGSSKVKKFDTSISFPPVNLEIIKKQLNTRLTLLQETHRSHLREYEKYVQDVKSSKSTIQNLESSSNQALNCKFYKSMKIYVENLIDCLNEKIINIQEIESSMHALLLKQAMTFMKRRQDELKHESTYLQQLSRKDETSTSGNFSVDEKTQWILEEIESRRTKRRQARVLSGNCNHQEGTSSDDELPSAEMIDFQKSQGDILQKQKKVFEEVQDDFCNIQNILLKFQQWREKFPDSYYEAFISLCIPKLLNPLIRVQLIDWNPLKLESTGLKEMPWFKSVEEFMDSSVEDSKKESSSDKKVLSAIINKTIIPRLTDFVEFLWDPLSTSQTTSLITHCRVILEEHSTCENEVSKSRQDLLKSIVSRMKKAVEDDVFIPLYPKSAVENKTSPHSKFQERQFWSGLKLFRNILLWNGLLTDDTLQELGLGKLLNRYLIIALLNATPGPDVVKKCNQVAACLPEKWFENSAMRTSIPQLENFIQFLLQSAHKLSRSEFRDEVEEIILILVKIKALNQAESFIGEHHLDHLKSLIKED [GCFC2] | 0.109 | 51.2 | 51.7 | -0.0501 | -2.18 | -1.62 |
| MAAARHSTLDFMLGAKADGETILKGLQSIFQEQGMAESVHTWQDHGYLATYTNKNGSFANLRIYPHGLVLLDLQSYDGDAQGKEEIDSILNKVEERMKELSQDSTGRVKRLPPIVRGGAIDRYWPTADGRLVEYDIDEVVYDEDSPYQNIKILHSKQFGNILILSGDVNLAESDLAYTRAIMGSGKEDYTGKDVLILGGGDGGILCEIVKLKPKMVTMVEIDQMVIDGCKKYMRKTCGDVLDNLKGDCYQVLIEDCIPVLKRYAKEGREFDYVINDLTAVPISTSPEEDSTWEFLRLILDLSMKVLKQDGKYFTQGNCVNLTEALSLYEEQLGRLYCPVEFSKEIVCVPSYLELWVFYTVWKKAKP [SMS] | 0.398 | 56.6 | 56.5 | -0.166 | -2.98 | -1.47 |
| MADSSGQQGKGRRVQPQWSPPAGTQPCRLHLYNSLTRNKEVFIPQDGKKVTWYCCGPTVYDASHMGHARSYISFDILRRVLKDYFKFDVFYCMNITDIDDKIIKRARQNHLFEQYREKRPEAAQLLEDVQAALKPFSVKLNETTDPDKKQMLERIQHAVQLATEPLEKAVQSRLTGEEVNSCVEVLLEEAKDLLSDWLDSTLGCDVTDNSIFSKLPKFWEGDFHRDMEALNVLPPDVLTRVSEYVPEIVNFVQKIVDNGYGYVSNGSVYFDTAKFASSEKHSYGKLVPEAVGDQKALQEGEGDLSISADRLSEKRSPNDFALWKASKPGEPSWPCPWGKGRPGWHIECSAMAGTLLGASMDIHGGGFDLRFPHHDNELAQSEAYFENDCWVRYFLHTGHLTIAGCKMSKSLKNFITIKDALKKHSARQLRLAFLMHSWKDTLDYSSNTMESALQYEKFLNEFFLNVKDILRAPVDITGQFEKWGEEEAELNKNFYDKKTAIHKALCDNVDTRTVMEEMRALVSQCNLYMAARKAVRKRPNQALLENIALYLTHMLKIFGAVEEDSSLGFPVGGPGTSLSLEATVMPYLQVLSEFREGVRKIAREQKVPEILQLSDALRDNILPELGVRFEDHEGLPTVVKLVDRNTLLKEREEKRRVEEEKRKKKEEAARRKQEQEAAKLAKMKIPPSEMFLSETDKYSKFDENGLPTHDMEGKELSKGQAKKLKKLFEAQEKLYKEYLQMAQNGSFQ [CARS] | 0.0728 | 52.9 | 52.6 | -0.103 | 0.401 | -0.0333 |
| MALLAMHSWRWAAAAAAFEKRRHSAILIRPLVSVSGSGPQWRPHQLGALGTARAYQIPESLKSITWQRLGKGNSGQFLDAAKALQVWPLIEKRTCWHGHAGGGLHTDPKEGLKDVDTRKIIKAMLSYVWPKDRPDLRARVAISLGFLGGAKAMNIVVPFMFKYAVDSLNQMSGNMLNLSDAPNTVATMATAVLIGYGVSRAGAAFFNEVRNAVFGKVAQNSIRRIAKNVFLHLHNLDLGFHLSRQTGALSKAIDRGTRGISFVLSALVFNLLPIMFEVMLVSGVLYYKCGAQFALVTLGTLGTYTAFTVAVTRWRTRFRIEMNKADNDAGNAAIDSLLNYETVKYFNNERYEAQRYDGFLKTYETASLKSTSTLAMLNFGQSAIFSVGLTAIMVLASQGIVAGTLTVGDLVMVNGLLFQLSLPLNFLGTVYRETRQALIDMNTLFTLLKVDTQIKDKVMASPLQITPQTATVAFDNVHFEYIEGQKVLSGISFEVPAGKKVAIVGGSGSGKSTIVRLLFRFYEPQKGSIYLAGQNIQDVSLESLRRAVGVVPQDAVLFHNTIYYNLLYGNISASPEEVYAVAKLAGLHDAILRMPHGYDTQVGERGLKLSGGEKQRVAIARAILKDPPVILYDEATSSLDSITEETILGAMKDVVKHRTSIFIAHRLSTVVDADEIIVLDQGKVAERGTHHGLLANPHSIYSEMWHTQSSRVQNHDNPKWEAKKENISKEEERKKLQEEIVNSVKGCGNCSC [ABCB7] | -0.121 | 52.5 | 51.6 | -0.12 | -0.909 | -1.83 |
| MPLVKRNIDPRHLCHTALPRGIKNELECVTNISLANIIRQLSSLSKYAEDIFGELFNEAHSFSFRVNSLQERVDRLSVSVTQLDPKEEELSLQDITMRKAFRSSTIQDQQLFDRKTLPIPLQETYDVCEQPPPLNILTPYRDDGKEGLKFYTNPSYFFDLWKEKMLQDTEDKRKEKRKQKQKNLDRPHEPEKVPRAPHDRRREWQKLAQGPELAEDDANLLHKHIEVANGPASHFETRPQTYVDHMDGSYSLSALPFSQMSELLTRAEERVLVRPHEPPPPPPMHGAGDAKPIPTCISSATGLIENRPQSPATGRTPVFVSPTPPPPPPPLPSALSTSSLRASMTSTPPPPVPPPPPPPATALQAPAVPPPPAPLQIAPGVLHPAPPPIAPPLVQPSPPVARAAPVCETVPVHPLPQGEVQGLPPPPPPPPLPPPGIRPSSPVTVTALAHPPSGLHPTPSTAPGPHVPLMPPSPPSQVIPASEPKRHPSTLPVISDARSVLLEAIRKGIQLRKVEEQREQEAKHERIENDVATILSRRIAVEYSDSEDDSEFDEVDWLE [WASF1] | 0.124 | 51.5 | 52 | 0.025 | -0.0852 | 0.459 |
| MDLGAITKYSALHAKPNGLILQYGTAGFRTKAEHLDHVMFRMGLLAVLRSKQTKSTIGVMVTASHNPEEDNGVKLVDPLGEMLAPSWEEHATCLANAEEQDMQRVLIDISEKEAVNLQQDAFVVIGRDTRPSSEKLSQSVIDGVTVLGGQFHDYGLLTTPQLHYMVYCRNTGGRYGKATIEGYYQKLSKAFVELTKQASCSGDEYRSLKVDCANGIGALKLREMEHYFSQGLSVQLFNDGSKGKLNHLCGADFVKSHQKPPQGMEIKSNERCCSFDGDADRIVYYYHDADGHFHLIDGDKIATLISSFLKELLVEIGESLNIGVVQTAYANGSSTRYLEEVMKVPVYCTKTGVKHLHHKAQEFDIGVYFEANGHGTALFSTAVEMKIKQSAEQLEDKKRKAAKMLENIIDLFNQAAGDAISDMLVIEAILALKGLTVQQWDALYTDLPNRQLKVQVADRRVISTTDAERQAVTPPGLQEAINDLVKKYKLSRAFVRPSGTEDVVRVYAEADSQESADHLAHEVSLAVFQLAGGIGERPQPGF [PGM3] | 0.186 | 51.4 | 51.2 | -0.0835 | -0.282 | -0.735 |

Source: the supplement of paper PMC5998384
